These results are taken from the RNAGym collection of RNA variant scans (doi:10.1021/acssynbio.7b00057).

B1: Pistol ribozyme (parent)
chain: GGGUCGUUGUUCCAUAAUCGCGUGGAUAUGGCACGCAAGUUUCUACCGGGCACCGUAAAUGUCCGACUGGAGCCGUUCGGGCGGCUAUAAACAGACCUCAGGCCCGAAGCGUGGCGGCACCUGCCGCCGGUGGUAAAAAAGAUCGGAAGAGCACACGUCU

In the series the parent is B1. Kind of series: aptazyme ON/OFF ratio, guanine; higher = stronger switching; co-transcriptional cleavage with and without guanine.
For the variant U8A U10C U11C C12U C13U, the “aptazyme ON/OFF ratio” value was determined as 1.04.
Regarding U7G U8G G9U C12G C13U, the “aptazyme ON/OFF ratio” value came out at 1.27.
Under U7G U8A U10C C12A C13U stands 1.34; under U7G U8C G9U C12A C13A, 1.34; under U7G U8G G9U U10A U11C C12A C13G, 1.08.
Under U7C U8G U10A U11C C12G C13U stands 1.24.
As for U7C U8A G9C U10C C12U, the figure is 1.15.
With U7G G9U U10C U11A, the “aptazyme ON/OFF ratio” value was determined as 3.43.
As to U7A U8G G9U U11C C12U C13U, the “aptazyme ON/OFF ratio” value worked out at 1.07.
As for U7A G9A U10C U11A C13U, the figure is 1.19; as for U7C U8G G9C U10G C12A C13G, 1.09.
As for U7A U8A U10A U11C C12A C13G, the figure is 1.12.
In the case of U7A U8C G9C U10A U11C, the “aptazyme ON/OFF ratio” value turned out to be 1.08.
U7A U8A U10C U11A C12G: the “aptazyme ON/OFF ratio” value stood at 1.19.
Under U7A G9U U10A C13U stands 1.35; under U8C G9U C12U C13A, 1.25; under G9U U10A U11C, 1.33.
As for U7A U8G G9C U10G U11C C12A C13U, the “aptazyme ON/OFF ratio” value came to 1.29.
As for U8G G9U U10A C12A C13G, the figure is 1.18; as for U7G U8G U10A U11A C12G C13A, 1.22; as for U7G U8A G9A U10C C12U C13G, 1.07.
Under U7G U11A C12U C13A stands 1.19; under U7A U10A U11A C12G C13U, 1.25.
In the case of U7G U8C G9U U10G U11G C12U C13G, the “aptazyme ON/OFF ratio” value came to 1.08.
For the variant U7C U8C G9C U10A C12A C13U, the “aptazyme ON/OFF ratio” value stood at 1.21.
As for U8G G9A U10G C12U C13U, the “aptazyme ON/OFF ratio” value came out at 1.18.
As for U7C U8G U10A C12G C13U, the “aptazyme ON/OFF ratio” value amounted to 1.18.
Under U8A G9U U10G U11G C12U C13A stands 1.32; under U7C U8C G9C U10C U11G C13U, 1.21.
As for U10A U11G C12A, the figure is 1.13; as for U7A U8C G9A U10G U11A C13U, 1.04.
Take U7G U8G U10A U11G C12G C13U: the “aptazyme ON/OFF ratio” value was 1.22.
Under U7A U8C G9U U10C U11C C12G C13G stands 1.22; under U7G U8A G9A U10G C13A, 1.08; under U7C C13A, 1.14.
As for U7A U10C C12U, the “aptazyme ON/OFF ratio” value came out at 3.22.
In the case of U7G U10C U11C C13G, the “aptazyme ON/OFF ratio” value turned out to be 1.01.
As for U8A G9A U10A U11C C12U C13A, the figure is 1.14; as for U7A U8A G9A U10A U11C, 1.04; as for U7C G9C U10A U11G, 1.09.
As for U8G G9A U10A U11G C13G, the figure is 1.07; as for U7G U8A U11G C12A C13U, 1.34; as for U7C U10G U11A C12U C13G, 1.1.
U7G U8A G9C U10G C12A C13U: the “aptazyme ON/OFF ratio” value worked out at 1.05.
Under U7G G9C U10G U11A C12G C13U stands 1.28; under U7A G9U U10A U11A C12A C13G, 1.14.
Under U7A U8C G9C U10G U11C stands 1.1; under U8A G9A U11C C12A C13G, 1.23.
Under U7A U8C U11G C12A stands 1.19; under U7C U8A U10G U11G C12U C13G, 1.22; under U7G U8G G9A U10A U11A C12A C13G, 1.07.
Consider U7G G9A C12U C13G, for which the “aptazyme ON/OFF ratio” value was found to be 1.15.
As for G9A U10G U11G C12U, the figure is 1.48; as for U7A G9C U10C, 2.21.
Under G9C U10C U11C C12G C13A stands 1.08.
Turning to U7C G9A U10C C12U, the “aptazyme ON/OFF ratio” value stood at 1.2.
As for U8C U10C U11A, the figure is 1.63; as for U7C U8A U10C U11C C12G C13A, 1.2.
Consider U7A U8A G9C U10A C12A C13A, for which the “aptazyme ON/OFF ratio” value was 1.11.
U7G U8C G9U U10A U11A C12G C13G: the “aptazyme ON/OFF ratio” value turned out to be 1.16.
As for G9A U10C U11A C12A, the figure is 1.67.
On to U7G U11G C13U, for which the “aptazyme ON/OFF ratio” value was found to be 1.1.
Consider U7A U8G G9A U10A C12A C13A, for which the “aptazyme ON/OFF ratio” value is 1.27.
Under U7A U8G U10G stands 1.25; under U7C U8C G9C U10A C13U, 1.35.
As for U7A U8A G9U U10G U11G C12G C13A, the figure is 1.21; as for U7A U8G, 1.13.
Under U7A U8A U10C U11A C12A C13A stands 1.1.
Take U7G U8C G9A U10G U11C C12U C13A: the “aptazyme ON/OFF ratio” value was 1.12.
Under U7A G9C C12U C13G stands 1.07.
As for U7G U8A G9A U10G, the “aptazyme ON/OFF ratio” value is 1.49.
Under U8A G9U U10G U11A C13U stands 1.03; under U7C U8G G9C U11C C13A, 1.47.
Under U8A G9A U10C U11G C12U C13G stands 1.22; under U7A U8A U10C U11A C12U C13U, 1.11; under U7C U8C G9U U10A U11G C13G, 1.11.
Under U8A G9A U10A U11A C13A stands 1.27; under U8C G9U U10A U11C C12A C13A, 1.33; under U7C U8C G9C U10G C13U, 1.17.
Take U7A U8G G9U U11G C12A: the “aptazyme ON/OFF ratio” value amounted to 1.38.
Under U7G U8A G9C U10C U11C C12U C13A stands 1.02.
As for U7C U8G G9A U10G U11A C12U C13G, the figure is 1.36.
As for U7A G9U U10G U11G C12A, the figure is 1.13.
As to U7G U8G G9U U11C C12G C13U, the “aptazyme ON/OFF ratio” value was 1.43.
As to U8C G9A U10C U11C C13G, the “aptazyme ON/OFF ratio” value stood at 1.02.
U7A U8G U10A U11C C12A C13G: the “aptazyme ON/OFF ratio” value was determined as 1.26.
Turning to U7G U8C G9C U10G C13G, the “aptazyme ON/OFF ratio” value amounted to 1.26.
Turning to U7C U8A G9U U11C C12U C13U, the “aptazyme ON/OFF ratio” value amounted to 1.21.
For U8A G9U U10C U11C C13G, the “aptazyme ON/OFF ratio” value came to 1.01.
Under U7C U10A U11A C12G stands 1.28; under U7G U8C G9A U10G U11A C12G C13U, 1.12.
As for U8G G9A U10G U11C C12A C13G, the figure is 1.16; as for U7A U8C G9C U10C U11A, 1.03; as for U10A U11A C13G, 1.12.
Under U7C U8A G9U U10C C12G C13G stands 1.28.
For the variant G9C U10A U11C C12G C13A, the “aptazyme ON/OFF ratio” value amounted to 1.32.
Under U7C G9A U10C U11A C12A stands 1.27; under U7A G9A U10C, 1.96.
With U7C U8C G9C C12U, the “aptazyme ON/OFF ratio” value came out at 1.17.
Turning to U10C U11C C13A, the “aptazyme ON/OFF ratio” value turned out to be 1.02.
Under U7G U8C G9C U10A U11C C13G stands 1.26; under U8A U10G C12U C13U, 1.36.
Turning to U8C G9C U10G C12U, the “aptazyme ON/OFF ratio” value was 1.12.
As for U7G U8G G9A U10G U11C C12G C13U, the figure is 1.28; as for U7C U8A U10G U11A C12A C13U, 1.24; as for U7A U8C G9C U10C U11C C12U C13G, 1.02.
As for U8G G9A U10G U11A C12G, the figure is 1.6; as for U7A U10C U11C C12G C13U, 1.06.
Under U7G G9U U10A U11A C12U C13U stands 1.28; under U7A U8A U10C U11C C12U, 1.07.
On to U7C U8G G9A U10G U11C C12A, for which the “aptazyme ON/OFF ratio” value came out at 1.41.
Under U7C U8A G9C U10C U11A C13A stands 1.09; under U7C U8A G9C U10C U11C C13G, 1; under U8C G9U U10C U11A C12U C13G, 1.09.
For the variant U8G G9U U10A U11A C12U C13A, the “aptazyme ON/OFF ratio” value was 1.14.
On to U7C G9A C12U C13A, for which the “aptazyme ON/OFF ratio” value was 1.22.
U8C U11C: the “aptazyme ON/OFF ratio” value came to 1.18.
Under U8C U11G stands 1.26.
Under U11C C12A stands 1.43.
As for U7C G9U U10G C12A C13U, the figure is 1.24; as for U7A G9C U11C C12G, 1.06; as for U7A U8G G9C U10A U11G, 1.9.
For the variant U8G G9A U10G C12G C13A, the “aptazyme ON/OFF ratio” value amounted to 1.52.
As for U7C U8C G9C U11G C12U, the figure is 1.12; as for U7A U8C G9C U10A U11A C12A C13G, 1.08; as for U7C U8G G9U U10A U11A C12A C13A, 1.16.
Take U7G U8C C12A C13G: the “aptazyme ON/OFF ratio” value was 1.1.
Under U7A G9A U10A U11A C12G C13G stands 1.21.
Under U7A U8A U10G U11C C12U C13G stands 1.48; under U7G U8A G9A C12G C13U, 1.11.
Under U8C G9C U10G U11A C12G C13A stands 1.08; under U7G U8A U10G U11C C12A C13G, 1.17.
In the case of U7A U8C G9U C12G C13U, the “aptazyme ON/OFF ratio” value turned out to be 1.37.
Consider U7G U8C G9A U10C C12U C13U, for which the “aptazyme ON/OFF ratio” value was found to be 1.08.
Consider U8C G9C U10G C13G, for which the “aptazyme ON/OFF ratio” value came out at 1.19.
As for U8A U11C C12U C13U, the figure is 1.37; as for U7G G9U U10A U11C C13A, 1.35; as for U8A G9U U10A U11A C13G, 1.07.
As to U7A U8A U11G C13U, the “aptazyme ON/OFF ratio” value is 1.2.
Turning to U7C U8A G9U U10C U11A C12G C13A, the “aptazyme ON/OFF ratio” value came to 1.1.
In the case of U10C U11A C12G, the “aptazyme ON/OFF ratio” value turned out to be 1.47.
Under U7A U8A G9A U10G U11A stands 1.02; under U8G G9U U11A C12U, 1.36; under U8G G9C U10G U11G C13A, 1.16.
Regarding U7G G9U U10G C12G C13U, the “aptazyme ON/OFF ratio” value stood at 1.4.
Under U8G G9A U10A C12U C13G stands 1.31; under U7A U8C G9A U11A C13U, 1.3.
As for U7G U8C G9U U11A C13U, the figure is 1.56; as for U7C U8G G9A U10A U11G C13U, 1.27.
Consider U7A G9U U10A C12G C13U, for which the “aptazyme ON/OFF ratio” value was 1.11.
On to U7C U11G C12A C13U, for which the “aptazyme ON/OFF ratio” value came to 1.17.
Under U7C G9A U10G U11G C12G C13G stands 1.05; under U7G U8C U11G C12A C13G, 1.15; under U7G G9C U10G, 1.89.
As for U8A G9U U10C U11G C12G C13U, the figure is 1.11.
As to U7C U8G G9A U10C C12A C13U, the “aptazyme ON/OFF ratio” value was found to be 1.14.
U7G U8C G9A U10C U11C C12A C13A: the “aptazyme ON/OFF ratio” value stood at 1.2.
As for U7A U8G G9A U10G U11A C12U, the figure is 1.12.
As for U7C U8A G9C U10G U11G C12U, the figure is 1.12.
Under U7G U8G G9C U10A U11G C12A C13U stands 1.05.
As for U7G U8A G9A U11C C12U C13G, the “aptazyme ON/OFF ratio” value is 1.29.
Under U7G U8A G9C U10A stands 1.07.
As for U7G U8A G9C U10A U11G C12G C13G, the figure is 1.03; as for U7G U8A G9A U10C U11A C12G, 1.15.
Consider U7G U8C U10G U11C C12G C13A, for which the “aptazyme ON/OFF ratio” value was 1.28.
As for U7A U8G U10G U11C C13G, the figure is 1.29.
As to U8C G9U U10G C12G C13A, the “aptazyme ON/OFF ratio” value amounted to 1.3.
